Usually stoichiometry N stands for a count of units in the complex or per binding partner. As usually defined, the Kd is the concentration at which binding is half-saturated.

Four molecules from publication PMC5449183, “Helical jackknives control the gates of the double-pore K^+ uptake system KtrAB” (eLife, 2017) can be followed below.

Data set [1] addresses KtrB from Vibrio alginolyticus (untagged, of the His10-KtrAB complex) (Vibrio alginolyticus) (UniProt O87953). The experiment in a line: cryo-EM structure; His10-KtrAB 5 mg/ml, detergent-solubilised (1.5 mM Cymal-6), 600 uM ADP, 70 mM NaCl, 30 mM KCl, 20 mM Tris-HCl pH 8.0; 20,500 particles, D2 symmetry, 6.6 A; model by flexible fitting of a homology model.
Data set [2] addresses T1, KtrA (RCK subunit of the KtrAB complex) (Vibrio alginolyticus, UniProt O87952). Put plainly: biochemical.
Data set [3] concerns the target T1, KtrA (RCK subunit of the KtrAB complex). The experiment in a line: ITC on detergent-solubilized KtrAB; […] Å cryo-EM map in the presence of ADP (EMD-3450); pulsed EPR. On the set-up: full-length KtrAB, His10-KtrAB, detergent-solubilized complex (octameric KtrA ring); with KtrB. The data set is classed as binding.
Data set [4] deals with the molecule itself. Put plainly: cryo-EM structure; His10-KtrAB 5 mg/ml, detergent-solubilised (1.5 mM Cymal-6), 600 uM ADP, 70 mM NaCl, 30 mM KCl, 20 mM Tris-HCl pH 8.0; 20,500 particles, D2 symmetry, 6.6 A; model by flexible fitting of a homology model.

T1 sequence (O87953 whole entry, one chain of several, further chain): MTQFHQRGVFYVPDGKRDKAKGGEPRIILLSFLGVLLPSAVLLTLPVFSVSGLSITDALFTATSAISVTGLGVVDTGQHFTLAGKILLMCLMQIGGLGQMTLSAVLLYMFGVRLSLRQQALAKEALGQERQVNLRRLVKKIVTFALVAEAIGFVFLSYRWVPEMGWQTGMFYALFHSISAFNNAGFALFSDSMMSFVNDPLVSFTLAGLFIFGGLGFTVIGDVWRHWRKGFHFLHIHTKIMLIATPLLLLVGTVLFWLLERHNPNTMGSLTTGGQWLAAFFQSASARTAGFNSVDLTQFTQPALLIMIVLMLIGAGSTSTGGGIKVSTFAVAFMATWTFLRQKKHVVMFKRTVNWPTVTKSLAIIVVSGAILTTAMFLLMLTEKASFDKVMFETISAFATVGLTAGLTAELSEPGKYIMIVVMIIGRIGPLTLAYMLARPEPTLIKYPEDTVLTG

In the case of “KtrB from Vibrio alginolyticus (untagged, of the His10-KtrAB complex) (from UniProt O87953 1-455) (natural protein)”, the stoichiometry N in data set [1] turned out to be 2.

On to `Nc1ncnc2c1ncn2[C@@H]1O[C@H](COP(=O)(O)OP(=O)(O)OP(=O)(O)O)[C@@H](O)[C@H]1O` [ATP], for which binding in data set [2] was characterised by a dissociation constant (Kd) of 2000 nM.

Regarding `Nc1ncnc2c1ncn2[C@@H]1O[C@H](COP(=O)(O)OP(=O)(O)O)[C@@H](O)[C@H]1O` [ADP], the Kd in data set [3] was determined as 3000 nM.

B1: KtrA from Vibrio alginolyticus (His10-KtrA of the His10-KtrAB complex) (natural protein, UniProt O87952 1-220, looked up)
chain: MKTGDKQFAVIGLGRFGLAVCKELQDSGSQVLAVDINEDRVKEAAGFVSQAIVANCTHEETVAELKLDDYDMVMIAIGADVNASILATLIAKEAGVKSVWVKANDRFQARVLQKIGADHIIMPERDMGIRVARKMLDKRVLEFHPLGSGLAMTEFVVGSRLMGKTLSDLALCKVEGVQVLGYKRGPEIIKAPDMSTTLEIGDLIIVVGPQDKLANKLKSL
notes: KtrA, cytoplasmic RCK subunit of the K+ uptake system KtrAB, Vibrio alginolyticus; gene amplified from genomic DNA; Forms an octameric ring (eight chains) in the complex KtrB2A8B2; The N-terminal end of the tag is read from the label His10-KtrAB; ADP (600 uM) was present in the cryo-EM sample; also called VaKtrA; RCK subunit; source: E. coli LB2003, co-expressed with KtrB from pBAD18 …
For the molecule B1, the “stoichiometry N” value in data set [4] came to 8.
